Assay results published in PMC7442640, “The oligomeric assembly of galectin-11 is critical for anti-parasitic activity in sheep (Ovis aries)” (Communications Biology, 2020).
Each block holds one compound with its values, some of them ahead of it.

Columns and labels:
[1] = target: galectin-11 (LGALS-11) isoform 2 of sheep (Ovis aries) (sheep (Ovis aries))
[2] = target: galectin-11 (LGALS-11) isoform 2 of sheep (Ovis aries) (sheep (Ovis aries)); assay: AUC; sedimentation velocity, c(s) analysis with SEDFIT; 0.10, 0.30 and 0.90 mg/ml; 20 mM Tris-HCl pH 8.0, 100 mM NaCl, 0.5 mM TCEP; 20 °C; absorbance at 280 nm
[3] = target: T1, LGALS-11 isoform 1 (galectin-11) (Ovis aries, UniProt A0A0A7EMW6); assay: X-ray crystallography; assay type: binding; settings: 2.40 Å complex structure; carbohydrate recognition domain (R53, N64, E74 hydrogen bonds; V62, W71 contacts)
T1 construct: gene LGALS15; recombinant, modified pET-28, E. coli BL21(DE3); alignment over 137 residues; homotetramer; natural variant with L9 and D124
T1 sequence (A0A0A7EMW6 1-137): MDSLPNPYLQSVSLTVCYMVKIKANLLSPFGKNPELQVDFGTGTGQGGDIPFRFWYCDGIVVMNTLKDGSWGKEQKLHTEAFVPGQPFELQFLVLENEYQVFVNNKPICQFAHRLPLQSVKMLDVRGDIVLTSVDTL

[4] = target: galectin-11 (LGALS-11) isoform 1 of sheep (Ovis aries) (sheep (Ovis aries))
[5] = target: galectin-11 (LGALS-11) isoform 1 of sheep (Ovis aries) (sheep (Ovis aries)); assay: AUC; sedimentation velocity, c(s) analysis with SEDFIT; 0.10, 0.30 and 0.90 mg/ml; 20 mM Tris-HCl pH 8.0, 100 mM NaCl, 0.5 mM TCEP; 20 °C; absorbance at 280 nm

stoichiometry N [2]: 2
Compound: galectin-11 (LGALS-11) isoform 2 of sheep (Ovis aries) (natural protein)
L4s of H. contortus with internal or cuticular damage after 72 h with isoform 2 [1]: < 10%

Compound: OC[C@H]1O[C@@H](O)[C@H](O)[C@@H](O)[C@H]1O [β-D-galactose]
X-ray crystallography [3]: This galactose bound directly to the residues present in the four adjacent strands

xL3s of H. contortus that did not develop to L4s when exposed to isoform 1 (1.0 mg/ml) [4]: 85%
stoichiometry N [5]: 4
Compound: galectin-11 (LGALS-11) isoform 1 of sheep (Ovis aries) (natural protein)
L4s of H. contortus with cuticular damage, shrunken soma and internal granules after 72 h with isoform 1 [4]: > 95%
